Reference: patent US20030211076A1, “Compositions and methods for treatment of proliferative disorders” (priority 2003, published 2003)

T1: lysyl oxidase (LO) (Bos taurus, UniProt P33072)
T1 construct: per mature LO molecule (32 kD); from tissue
T1 sequence (P33072 170-418): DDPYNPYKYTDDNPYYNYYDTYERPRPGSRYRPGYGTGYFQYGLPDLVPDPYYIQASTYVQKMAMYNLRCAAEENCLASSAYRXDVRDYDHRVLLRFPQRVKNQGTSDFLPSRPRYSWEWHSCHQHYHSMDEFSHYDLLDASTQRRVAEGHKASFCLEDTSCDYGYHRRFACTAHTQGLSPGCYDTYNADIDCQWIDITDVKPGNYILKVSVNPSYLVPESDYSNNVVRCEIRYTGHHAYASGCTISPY

B1: FGF4: human recombinant fibroblast growth factor 4 (R & D Systems) (protein, UniProt P08620 31-206, looked up)
Fibroblast growth factor 4: APTAPNGTLEAELERRWESLVALSLARLPVAAQPKEAAVQSGAGDYLLGIKRLRRLYCNVGIGFHLQALPDGRIGGAHADTRDSLLELSPVERGVVSIFGVASRFFVAMSSKGKLYGSPFFTDECTFKEILLPNNYNAYESYKYPGMFIALSKNGKTKKGNRVSPTMKVTHFLPRL
B2: FGF6: human recombinant fibroblast growth factor 6 (R & D Systems) (protein, UniProt P10767 38-208, looked up)
Fibroblast growth factor 6: SPAGTRANNTLLDSRGWGTLLSRSRAGLAGEIAGVNWESGYLVGIKRQRRLYCNVGIGFHLQVLPDGRISGTHEENPYSLLEISTVERGVVSLFGVRSALFVAMNSKGRLYATPSFQEECKFRETLLPNNYNAYESDLYQGTYIALSKYGRVKRGSKVSPIMTVTHFLPRI
B3: FGF5: human recombinant fibroblast growth factor 5 (R & D Systems) (protein, UniProt P12034 21-268, looked up)
Fibroblast growth factor 5: HGEKRLAPKGQPGPAATDRNPRGSSSRQSSSSAMSSSSASSSPAASLGSQGSGLEQSSFQWSPSGRRTGSLYCRVGIGFHLQIYPDGKVNGSHEANMLSVLEIFAVSQGIVGIRGVFSNKFLAMSKKGKLHASAKFTDDCKFRERFQENSYNTYASAIHRTEKTGREWYVALNKRGKAKRGCSPRVKPQHISTHFLPRFKQSEQPELSFTVTVPEKKKPPSPIKPKIPLSAPRKNTNSVKYRLKFRFG

Each molecule was assayed against T1, lysyl oxidase (LO) (assay: LO-dependent H2O2 release, horseradish peroxidase-coupled fluorescence assay (substrate potential for LO)). Details: factor as sole substrate, LO-dependent H2O2 release in vitro.
Type: biochemical
Method: The oxidation of a primary amine substrate by LO yields stoichiometric amounts of the corresponding aldehyde, hydrogen peroxide and ammonia, as shown: RCH2NH2+O2+H2O→RCHO+H2O2+NH3 (Kagan, 1986). To assess the substrate potential of FGF2, LO-dependent H2O2 release was monitored in assays using FGF2 as the sole substrate, using both the optimum temperature for LO activity of 55° C. and the physiological temperature of 37° C. (Trackman et al., 1981).
LO reaction with FGF2 as a substrate was assessed by a horseradish peroxidase-coupled fluorescence assay for H2O2 production. Reaction mixtures contained 0.25 mg of sodium homovanillate(HVA), 40 μg of HRP, and FGF2 at doses as indicated below in 0.05 M sodium borate buffer, pH 8.2, in a final volume of 2 ml. Assays were initiated by the addition of LO to reaction mixtures. H2O2 release was continuously monitored at excitation and emission wavelengths of 315 and 425 nm, respectively, at a constant temperature of 55° C. or 37° C., as specified, in the thermostatted cuvette chamber of an SLM Aminco Bowman Series 2 Luminescence Spectrometer. All activity data were corrected for background rates of H2O2 release determined in complete assay mixtures supplemented with 200 μM BAPN, an irreversible inhibitor of LO. In FIG. 4, solid curves represent the time course of H2O2 release at 55° C. in the reaction of 0.16 μM LO with 0.23 (a), 0.45 (b) and 0.9 (c) μM FGF2, respectively. Dotted curve (d) represents the time course of H2O2 release in the reaction of 0.16 μM LO with 0.9 μM FGF2 at 37° C. The same data were obtained from three separate experiments.
Using the fluorometric assay (Trackman et al., 1981) to monitor LO-dependent H2O2 release in vitro, the substrate potential of other growth factors was also assessed. Major members of the FGF family tested included FGF 1, 4, 5, 6, 7 and EGF (note: All factors are human recombinant forms purchased from R & D Systems, Inc., Minneapolis, Minn.).
A human recombinant disulfide-linked dimer of VEGF165 (MW: 42 kDa)(R & D Systems) as a sole substrate was tested by using the standard in vitro LO catalysis assays as described above for FIG. 4 (Trackman et al., 1981). Curves represent the time course of H2O2 release at 55° C. (a) or 37° C. (b) in the reaction of 0.10 μM LO with 0.45 μM VEGF165. All activity data were corrected for background rates of H2O2 release determined in complete assay mixtures supplemented with the same amounts of LO preincubated with 100 μM BAPN for 15 min at 37° C. The same data were obtained from three separate experiments.
The standard in vitro LO catalysis assays as described above for FIG. 4 (Trackman et al., 1981) using human recombinant PDGF-AB (R & D Systems) as a sole substrate was tested. […] In FIG. 19, curves represent the time course of H2O2 release at 55° C. (a) and 37° C. (b) in the reaction of 0.11 μM LO with 0.46 μM PDGF-AB, respectively. All activity data were corrected for background rates of H2O2 release determined in complete assay mixtures supplemented with the same amounts of LO preincubated with 100 μM BAPN for 15 minutes at 37° C. The same data were obtained from three separate experiments.
To analyze the substrate potential of Tat, the standard in vitro LO catalysis assays as described in FIG. 4 (Trackman et al., 1981) was performed at the optimum temperature of 55° C. and at the physiological temperature of 37° C. A recombinant Tat with 9 lysines in a total of 86 amino acids was used as a sole substrate. FIG. 12A represents a dose and temperature-dependent response. Curves represent the time course of H2O2 release at 55° C. (solid) or 37° C. (dotted) in the reaction of 0.10 μM LO with 0.22 (a and d), 0.43 (b and e) and 0.85 (c and f) μM Tat, respectively. All activity data were corrected for background rates of H2O2 release determined in complete assay mixtures supplemented with the same amounts of LO preincubated with 100 μM BAPN for 15 min at 37° C. […]

Molecule | substrate of LO (in words)
B1 | substrates of LO
B2 | substrates of LO
B3 | substrates of LO

Same assay, conditions: oxidation by LO in vitro, 37° C. (molar ratio of H2O2 released per molecule of substrate)

Molecule | Oxidized Lysines per Molecule 37° C.
B1 | 3.6
B2 | 3.1
B3 | 10.0

Same assay, conditions: oxidation by LO in vitro, 55° C.

Molecule | Oxidized Lysines per Molecule 55° C.
B1 | 14.5
B2 | 7.2
B3 | 18.0
